{
  "source": "IntAct's records for PubMed 20956295",
  "target": "cav1_human CAV1 (UniProt Q03135)",
  "sequence (Q03135 whole entry)": "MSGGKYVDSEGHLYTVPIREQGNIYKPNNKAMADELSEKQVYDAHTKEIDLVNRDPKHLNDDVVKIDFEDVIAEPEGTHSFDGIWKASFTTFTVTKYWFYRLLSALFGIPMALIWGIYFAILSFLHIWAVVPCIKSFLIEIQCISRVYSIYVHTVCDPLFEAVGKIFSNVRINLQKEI",
  "data": [
    {"substance": "Microtubule-associated protein 1 light chain 3 beta (Homo sapiens) (from UniProt Q9GZQ8) Y113A", "values": [
      {"measurement": "effect of a mutation on the interaction", "value": "disrupting interaction"}
    ]}
  ]
}
